Paper PMC12102759 (2025)

B1: RNF115 peptide 69-84 (E3 ubiquitin-protein ligase RNF115), 16-mer library wild type / MDM2 SWIB (MDM2 SWIB/MDM2 domain, residues 17-125) (parent complex)
chain 1: THFAELWGHLDHTMFF
chain 2: SQIPASEQETLVRPKPLLLKLLKSVGAQKDTYTMKEVLFYLGQYIMTKRLYDEKQQHIVYCSNDLLGDLFGVPSFSVKEHRKIYTMIYRNLVVVNQQESSDSGTSVSEN

Variants of: B1
Assay: proteomic peptide phage display deep mutational scan (ProP-PD DMS): M13 P8 16-mer library selected against immobilised GST-tagged bait for four days (rounds), NGS of the eluted pools per day and pseudo-replica; bait immobilised on MaxiSorp plates (10 µg), library pre-cleared on GST, 2 h binding at 4 °C, five washes; one round per day, days 1-4; value from days 2 and 3

Variant | screen value
chain 1 T1V | 0.00156 average fractional NGS count over selection days 2 and 3 (reads of this peptide / all reads for the bait, averaged over …
chain 1 T1G | 0.000168 average fractional NGS count over selection days 2 and 3 (reads of this peptide / all reads for the bait, averaged over …
chain 1 T1D | 0.000599 average fractional NGS count over selection days 2 and 3 (reads of this peptide / all reads for the bait, averaged over …
chain 1 T1H | 0.00126 average fractional NGS count over selection days 2 and 3 (reads of this peptide / all reads for the bait, averaged over …
chain 1 T1L | 0.000174 average fractional NGS count over selection days 2 and 3 (reads of this peptide / all reads for the bait, averaged over …
chain 1 T1F | 0.000233 average fractional NGS count over selection days 2 and 3 (reads of this peptide / all reads for the bait, averaged over …
chain 1 T1M | 0.0023 average fractional NGS count over selection days 2 and 3 (reads of this peptide / all reads for the bait, averaged over …
chain 1 H2Y | 0.000608 average fractional NGS count over selection days 2 and 3 (reads of this peptide / all reads for the bait, averaged over …
chain 1 H2N | 0.000593 average fractional NGS count over selection days 2 and 3 (reads of this peptide / all reads for the bait, averaged over …
chain 1 H2I | 0.000473 average fractional NGS count over selection days 2 and 3 (reads of this peptide / all reads for the bait, averaged over …
chain 1 H2E | 0.000801 average fractional NGS count over selection days 2 and 3 (reads of this peptide / all reads for the bait, averaged over …
chain 1 H2R | 0.000186 average fractional NGS count over selection days 2 and 3 (reads of this peptide / all reads for the bait, averaged over …
chain 1 H2A | 0.000678 average fractional NGS count over selection days 2 and 3 (reads of this peptide / all reads for the bait, averaged over …
chain 1 H2W | 0.000523 average fractional NGS count over selection days 2 and 3 (reads of this peptide / all reads for the bait, averaged over …
chain 1 H2S | 0.0241 average fractional NGS count over selection days 2 and 3 (reads of this peptide / all reads for the bait, averaged over …
chain 1 H2Q | 0.00104 average fractional NGS count over selection days 2 and 3 (reads of this peptide / all reads for the bait, averaged over …
chain 1 H2V | 0.00468 average fractional NGS count over selection days 2 and 3 (reads of this peptide / all reads for the bait, averaged over …
chain 1 H2D | 0.00139 average fractional NGS count over selection days 2 and 3 (reads of this peptide / all reads for the bait, averaged over …

Variant | screen value
chain 1 H2G | 0.0014 average fractional NGS count over selection days 2 and 3 (reads of this peptide / all reads for the bait, averaged over …
chain 1 H12P | 0.000332 average fractional NGS count over selection days 2 and 3 (reads of this peptide / all reads for the bait, averaged over …
chain 1 H12D | 0.00032 average fractional NGS count over selection days 2 and 3 (reads of this peptide / all reads for the bait, averaged over …
chain 1 H12N | 0.00222 average fractional NGS count over selection days 2 and 3 (reads of this peptide / all reads for the bait, averaged over …
chain 1 H12S | 0.00289 average fractional NGS count over selection days 2 and 3 (reads of this peptide / all reads for the bait, averaged over …
chain 1 H12G | 0.0011 average fractional NGS count over selection days 2 and 3 (reads of this peptide / all reads for the bait, averaged over …
chain 1 H12Q | 0.000843 average fractional NGS count over selection days 2 and 3 (reads of this peptide / all reads for the bait, averaged over …
chain 1 H12L | 0.000337 average fractional NGS count over selection days 2 and 3 (reads of this peptide / all reads for the bait, averaged over …
chain 1 H12V | 0.000717 average fractional NGS count over selection days 2 and 3 (reads of this peptide / all reads for the bait, averaged over …
chain 1 H12T | 0.00036 average fractional NGS count over selection days 2 and 3 (reads of this peptide / all reads for the bait, averaged over …
chain 1 H12M | 0.00543 average fractional NGS count over selection days 2 and 3 (reads of this peptide / all reads for the bait, averaged over …
chain 1 M14W | 0.00207 average fractional NGS count over selection days 2 and 3 (reads of this peptide / all reads for the bait, averaged over …
chain 1 M14Y | 0.00313 average fractional NGS count over selection days 2 and 3 (reads of this peptide / all reads for the bait, averaged over …
chain 1 M14D | 0.00118 average fractional NGS count over selection days 2 and 3 (reads of this peptide / all reads for the bait, averaged over …
chain 1 M14S | 0.00183 average fractional NGS count over selection days 2 and 3 (reads of this peptide / all reads for the bait, averaged over …
chain 1 M14P | 0.00244 average fractional NGS count over selection days 2 and 3 (reads of this peptide / all reads for the bait, averaged over …
chain 1 M14H | 0.0015 average fractional NGS count over selection days 2 and 3 (reads of this peptide / all reads for the bait, averaged over …
chain 1 M14N | 0.00152 average fractional NGS count over selection days 2 and 3 (reads of this peptide / all reads for the bait, averaged over …
